Assay results published in US12006530B2, “Streptococcal proteases” (priority 2016, dated 2024).

Assays:
[1] = system: porcine IgG; assay: IgG cleavage by IgdE, SDS-PAGE; assay type: biochemical, pig; conditions: purified polyclonal IgG, reducing SDS-PAGE
Procedure: (A) Schematic illustration of IgdE and the different rIgdE constructs with potential active site residues substitutions and the C-terminal truncation variant. The secretion signal peptide (residues 1-37) is marked in light grey, the transglutaminase domain is boxed and the potential active site residues and substitutions are indicated. (B) 3.3 μM porcine IgG was incubated for 16 h at 37° C. with soluble fractions of E. coli cells expressing different rIgdE constructs. The reaction was analyzed SDS-PAGE under reducing conditions. […] The weak protein band of 37 kDa is a contaminant present in lysate preparation and not related to IgdE activity.
(§1) 0.5 mg/ml of porcine IgG (Sigma) in PBS or of other species (human, goat, cow, horse and mouse; all Sigma) were incubated with either crude extracts of induced E. coli carrying S. suis IgdE constructs mentioned above or 10 nM purified rIgdE for 16 h at 37° C. prior subjection to SDS-PAGE under either reducing or non-reducing conditions.
(§2) Samples for SDS-PAGE were prepared with either reducing or non-reducing sample buffer and heated to 95° C. for 5 min. 12% SDS-PAGE was either stained with Coomassie blue (Sigma), Coomassie Fluor™ Orange Protein Gel Stain (Invitrogen) or blotted to Hybond-P PVDF membrane (GE Healthcare) for western blot analyses. Membranes were blocked with 5% dry milk powder in 0.1% PBS-Tween, followed by incubation with horse-radish peroxidase conjugated antibodies. Goat anti-pig IgG-HRP (Thermo Scientific) and goat anti-porcine IgM-HRP (Thermo Scientific) was diluted 1:25′000 and goat anti-porcine IgA-HRP (Thermo Scientific) was diluted 1:12′500. Membranes were thoroughly washed with 0.1% PBS-Tween prior to development with Amersham ECL Select Western blotting detection reagent (GE Healthcare) according to manufactures instruction and pictured by LAS4000 imaging system (Fujifilm).

[2] = system: human IgG; assay: IgG cleavage by IgdE, SDS-PAGE; assay type: biochemical; conditions: purified polyclonal IgG, reducing SDS-PAGE
Procedure: (§3) (A) rIgdEagalactiae was incubated with polyclonal IgG of six different species for 18 h at 37° C. and analyzed by SDS-PAGE under reducing conditions. Degradation products are indicated by asterisks (*). Images of different gels have been used to create the figure. (B) rIgdEagalactiae was incubated with human or bovine serum for 18 h in 37° C. and analyzed by SDS-PAGE under reducing conditions. Degradation products are indicated by asterisks (*). (C) Western Blot with crude extracts of rIgdEagalactiae incubated with human and porcine serum for 18 h in 37° C. Membrane was treated with antibodies against human and porcine polyclonal IgG respectively. Degradation products are indicated by asterisks (*). (D) rIgdEagalactiae was incubated with subclasses of human IgG as well as human IgA and IgM for 18 h in 37° C. and analyzed by SDS-PAGE under reducing conditions. Degradation products are indicated by asterisks (*). Images of different gels have been used to create the figure.
as §1, §2

[3] = system: cow IgG; assay: IgG cleavage by IgdE, SDS-PAGE; assay type: biochemical; conditions: purified polyclonal IgG, reducing SDS-PAGE
Procedure: as §1, §2

[4] = system: goat IgG; assay: IgG cleavage by IgdE, SDS-PAGE; assay type: biochemical; conditions: purified polyclonal IgG, reducing SDS-PAGE
Procedure: as §1, §2

[5] = system: horse IgG; assay: IgG cleavage by IgdE, SDS-PAGE; assay type: biochemical; conditions: purified polyclonal IgG, reducing SDS-PAGE
Procedure: as §1, §2

[6] = system: mouse IgG; assay: IgG cleavage by IgdE, SDS-PAGE; assay type: biochemical; conditions: purified polyclonal IgG, reducing SDS-PAGE
Procedure: as §1, §2

[7] = system: IgG in human serum; assay: Ig cleavage in human serum, anti-IgG Western blot; assay type: biochemical
Procedure: as §3

[8] = system: monoclonal human IgG1; assay: Cleavage of human IgG subclasses, SDS-PAGE; assay type: biochemical; conditions: 18 h, 37° C., reducing SDS-PAGE
Procedure: as §3

[9] = system: monoclonal human IgG2; assay: Cleavage of human IgG subclasses, SDS-PAGE; assay type: biochemical; conditions: 18 h, 37° C., reducing SDS-PAGE
Procedure: as §3

[10] = target: monoclonal human IgG3 (Homo sapiens, UniProt P01860); assay: Cleavage of human IgG subclasses, SDS-PAGE; assay type: biochemical; conditions: 18 h, 37° C., reducing SDS-PAGE
Sequence of monoclonal human IgG3 (P01860 1-377 isoform P01860-1): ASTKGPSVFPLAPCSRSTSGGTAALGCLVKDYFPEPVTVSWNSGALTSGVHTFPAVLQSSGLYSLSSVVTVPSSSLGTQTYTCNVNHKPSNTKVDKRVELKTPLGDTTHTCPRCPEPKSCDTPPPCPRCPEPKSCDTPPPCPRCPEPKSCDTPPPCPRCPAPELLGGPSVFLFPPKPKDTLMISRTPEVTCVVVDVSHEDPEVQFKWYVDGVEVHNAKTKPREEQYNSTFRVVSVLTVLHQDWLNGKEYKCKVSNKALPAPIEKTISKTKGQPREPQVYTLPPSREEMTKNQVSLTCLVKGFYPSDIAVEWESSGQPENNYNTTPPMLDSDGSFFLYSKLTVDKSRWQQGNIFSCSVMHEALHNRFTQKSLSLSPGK
Procedure: as §3

[11] = target: monoclonal human IgG4 (Homo sapiens, UniProt P01861); assay: Cleavage of human IgG subclasses, SDS-PAGE; assay type: biochemical; conditions: 18 h, 37° C., reducing SDS-PAGE
Sequence of monoclonal human IgG4 (P01861 1-327 isoform P01861-1): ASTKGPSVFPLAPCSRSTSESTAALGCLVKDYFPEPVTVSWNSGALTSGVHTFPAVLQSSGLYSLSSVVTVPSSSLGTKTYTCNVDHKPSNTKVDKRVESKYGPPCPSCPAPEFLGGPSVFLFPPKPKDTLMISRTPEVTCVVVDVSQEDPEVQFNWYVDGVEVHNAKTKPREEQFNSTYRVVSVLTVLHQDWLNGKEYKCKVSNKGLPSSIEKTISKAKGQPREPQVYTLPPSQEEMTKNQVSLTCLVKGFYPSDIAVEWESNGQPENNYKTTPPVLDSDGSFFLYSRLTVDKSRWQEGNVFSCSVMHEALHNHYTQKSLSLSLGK
Procedure: as §3

[12] = target: T1, human serum IgG1 (Homo sapiens, UniProt P01857); assay: Degradation of human serum IgG1, non-reducing Western blot; assay type: biochemical; conditions: 18 h at 37° C.
T1 construct: Human serum and monoclonal human IgG1 were incubated in presence (+) or absence (−) of rIgdEagalactiae; from tissue; host or cells: human serum
T1 sequence (P01857 1-330 isoform P01857-1): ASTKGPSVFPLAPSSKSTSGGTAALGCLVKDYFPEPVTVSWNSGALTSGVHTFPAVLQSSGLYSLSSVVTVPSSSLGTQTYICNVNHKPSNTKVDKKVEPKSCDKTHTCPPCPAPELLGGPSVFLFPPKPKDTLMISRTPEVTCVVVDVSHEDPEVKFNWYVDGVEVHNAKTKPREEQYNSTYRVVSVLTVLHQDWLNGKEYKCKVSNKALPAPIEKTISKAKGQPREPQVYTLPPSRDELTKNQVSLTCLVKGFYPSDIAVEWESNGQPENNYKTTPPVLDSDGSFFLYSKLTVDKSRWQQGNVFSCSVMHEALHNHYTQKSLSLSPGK
Procedure: Human serum and monoclonal human IgG1 were incubated in presence (+) or absence (−) of rIgdEagalactiae for 18 h at 37° C. and analyzed by Western blot under non-reducing conditions with a human IgG-specific antibody.

[13] = system: IgG; assay: IgG degrading cysteine protease activity: specificity as summarised; assay type: biochemical; conditions: summary statement
Text: Typically, polypeptides for use in accordance with the invention display immunoglobulin cysteine protease activity, and in particular IgG degrading cysteine protease activity. Preferably, the polypeptide cleaves IgG in the hinge region and more particularly in the hinge region of the heavy chain. Preferably, cleavage results in production of Fc and Fab fragments of IgG. Preferably the activity is specific for IgG. The IgG degrading cysteine protease activity may be determined by means of a suitable assay. For example, a test polypeptide may be incubated with IgG at a suitable temperature, such as 37° C. The starting materials and the reaction products may then be analysed by SDS PAGE to determine whether the desired IgG cleavage product is present. Typically this cleavage product is a 32 kDa fragment. Typically there is no further degradation of IgG after this first cleavage. The cleavage product may be subjected to N-terminal sequencing to verify that cleavage has occurred in the hinge region of IgG.
The IgG degrading cysteine protease activity of the polypeptides is generally IgG-specific in that the polypeptides may not degrade other classes of Ig, namely IgM, and IgA, when incubated with these immunoglobulins under conditions that permit cleavage of IgG.

[14] = system: rat IgG; assay: IgG cleavage by IgdE, SDS-PAGE; assay type: biochemical; conditions: purified polyclonal IgG
[15] = system: porcine IgG; assay: Ig cleavage in porcine plasma or serum, anti-IgG Western blot; assay type: biochemical, pig
Procedure: (§4) (A) 2% porcine plasma was incubated with (+) or without (−) 10 nM purified rIgdE.
(§5) The reaction was analyzed by anti-porcine IgG, IgM and IgA Western blots under reducing conditions. Only cleavage of IgG was observed (*). (B) 0.5 mg/ml IgG of different species was incubated with (+) or without (−) 10 nM purified rIgdE and analyzed by SDS-PAGE under reducing conditions. No cleavage of IgG derived from any other species than pig (*) was observed. The weak protein band of 37 kDa is a contaminant present in lysate preparation (see lane 2) and not related to IgdE activity. Images of different gels have been assembled into one figure.
as §2, with “Membranes were thoroughly washed with 0.1% PBS-Tween prior to development with Amersham ECL Select Western blotting detection reagent (GE Healthcare) according to manufactures instruction and pictured by LAS4000 imaging system (Fujifilm).” left out

[16] = system: porcine IgA; assay: Ig cleavage in porcine plasma or serum, anti-IgA Western blot; assay type: biochemical, pig
Procedure: as §4, §5
as §2, with “Membranes were thoroughly washed with 0.1% PBS-Tween prior to development with Amersham ECL Select Western blotting detection reagent (GE Healthcare) according to manufactures instruction and pictured by LAS4000 imaging system (Fujifilm).” left out

B1: IgdEagalactiae: IgdE isolated from S. agalactiae strain CCUG4208, SEQ ID NO: 3 (protein, listed as Streptococcus agalactiae)
chain: NQNNIQETNLVEKNSEDKFIQELNRYKTEIPNFKGFNVWILGDKGYYKNLINLEEIKNIQATLKKERNEEYVFVKLNGKIAHDTTVFLMNKKHKLLKNIEEFKTITQKRLTERGKFPYDTVHSTFEIKDENFIMERLKSSGLSMGKPVDYMGVNGIPIYTKTLSIDNKFAFENNSKDSSYSSNINISEDKIKENDQKILDLIVKSGANNQNLTDEEKVIAFTKYIGEITNYDNEAYRARNVDTEYYRASDLFSVTERKLAMCVGYSVTAARAFNIMGIPSYVVSGKSPQGISHAAVRAYYNRSWHIIDITASTYWKNGNYKTTYSDFIKEYCIDGYDVYDPAKTNNRFKVKYMESNEAFENWIHNNGSKSMLFINESAALKDKKPKDDFVPVTEKEKNELIDKYKKLLSQIPENTQNPGEKNIRDYLKNEYEEILKKDNLFEHEHAEFKESLNLNESFYLQLKKEEKKPSDNLKKEEKPRENSVKERETPAENNDFVSVTEKNNLIDKYKELLSKIPENTQNPGEKNIRNYLEKEYEELLQKDKLFKHEYTEFTKSLNLNETFYSQLKEGEMKLSENPEKGETNTN
cleavage of polyclonal porcine IgG (32 kDa degradation product) [1]: No degradation product was observed | cleavage of polyclonal human IgG (32 kDa degradation product) [2]: cleaved | cleavage of polyclonal cow IgG [3]: No degradation product was observed | cleavage of polyclonal goat IgG [4]: No degradation product was observed | cleavage of polyclonal horse IgG [5]: No degradation product was observed | cleavage of polyclonal mouse IgG [6]: No degradation product was observed | cleavage of IgG in human serum [7]: cleaved IgG in human serum | cleavage of monoclonal human IgG1 kappa (32 kDa degradation product) [8]: cleaved | cleavage of monoclonal human IgG1 lambda (32 kDa degradation product) [8]: cleaved | cleavage of monoclonal human IgG2 [9]: No degradation product was observed | cleavage of monoclonal human IgG3 [10]: No degradation product was observed | cleavage of monoclonal human IgG4 [11]: No degradation product was observed | degradation of human serum IgG1 [12]: degrades human serum IgG1 completely to single cleaved IgG1 | immunoglobulin specificity of the IgG degrading cysteine protease activity [13]: specific for human IgG, and specifically human IgG1

B2: IgdEpseudoporcinus: IgdE isolated from S. pseudoporcinus strain ATCC BAA-1381, SEQ ID NO: 9 (protein, listed as Streptococcus pseudoporcinus)
chain: RENENVRQLQSENKQMKAVNLQEFSEKLKGEIAENQQFHIFKLGLNNYYIGGVRINELSDLAKNHDFIMIDNRATHNKYGVPHIIIMNKDDVIVHNQEDYNKEMAELTFAGDKPIQSDSYLPQKKRIHALFEIGLDSNRRQLLNAAGLKTPENSVIELDTFKIYSHGLAVDNKYYDEYSHFNNNTNVNITKQRFTENDNLIHNLITTSTAKDQPTDRDKVKTFVMYVANHTIYDWNAANNAVSNISDVNYYLGSDLFSITERKKAMCVGFSTTAARAFNMLGIPAYVVEGKNAQGVDHATARVYYNGKWHTIDGTGFINGNRTRSTLYTESHFRSVGEDSYQLVGLNEDIPFDRNYMKIDKVYEEWAPKQKTADLLLVNKDKSLVGLDRVAYVEPVYVDKNRQDALTQIYKKLKETMESSSKKNPSSGGFSSLLGSASSDIAKLEGSSQLTQEEYDKIHRSMTSILTFFAQLDKDAAEAFEKGNDYKNYLATTKHAQ
cleavage of polyclonal porcine IgG (32 kDa degradation product) [1]: cleaved | cleavage of polyclonal human IgG (32 kDa degradation product) [2]: cleaved | cleavage of polyclonal cow IgG [3]: No degradation product was observed | cleavage of polyclonal goat IgG [4]: No degradation product was observed | cleavage of polyclonal horse IgG [5]: No degradation product was observed | cleavage of polyclonal mouse IgG [6]: No degradation product was observed | cleavage of polyclonal rat IgG [14]: No degradation product was observed | cleavage of IgG in porcine plasma or serum [15]: cleaved IgG in human and porcine serum | cleavage of IgG in human serum [7]: cleaved IgG in human and porcine serum | immunoglobulin specificity of the IgG degrading cysteine protease activity [13]: specific for porcine IgG

B3: IgdEporcinus: IgdE isolated from S. porcinus strain DSM20725, SEQ ID NO: 5 (protein, listed as Streptococcus porcinus)
chain: AVLARENSNSGQLHPEARQIKAVDFQEFSKKLKEEISENQQFHVFKLGMNNYYRSGIRINELNNLATEHDFILVNDHASHKKYDVPHIFIMNKGDVIVPSKEKYDEQMREVKFAGDQPNAQRQRIHALFEIGLDSNKRQLLNAAGLGTAENTLAKVDGFTIYSHGLTVDNKYYEDYIRFNKNENINITKERFTANDNLIHNLITESTAKVQTNDRDKVKAFVMYVANHTIYDWIAANNAVSNISDVNYYLGSDLFSITERKKAMCVGFSTTAARAFNMLGIPAYVVVGKNAQGVDHATARAYYNGKWHTIDGTGFINDKASRSTIYSENHFYSIGEDSYNIVDVNDEQIAFDKNYMKIDKVFEEWAQKQPTADLLLINKDKSLVPSNYVAYVAPVIVDNNRKGSLTQIYQNLKQVMESSSQKASLTSLLNTATADIAKLQTSSQLTQEDYNQIQNSMKSVLSFFWQLDKDSATNFENSEDYKKYLTETKNAGN
cleavage of polyclonal porcine IgG (32 kDa degradation product) [1]: cleaved | cleavage of polyclonal human IgG (32 kDa degradation product) [2]: No degradation product was observed | cleavage of polyclonal cow IgG [3]: No degradation product was observed | cleavage of polyclonal goat IgG [4]: No degradation product was observed | cleavage of polyclonal horse IgG [5]: No degradation product was observed | cleavage of polyclonal mouse IgG [6]: No degradation product was observed | cleavage of IgG in porcine plasma or serum [15]: cleaved IgG in porcine serum | cleavage of IgA in porcine plasma or serum [16]: but not IgM or IgA | immunoglobulin specificity of the IgG degrading cysteine protease activity [13]: specific for porcine IgG
